From patent US20150038430A1 (published 2015)
Bridge positions count the residues as written; N and C are the ends.

Legend:
Test in all cases: MS-based binding affinity
Bcl-2 = biological target: Bcl-2
Mcl-1 = biological target: Mcl-1
Bcl-xL = Bcl-xL (UniProt Q07817 1-212)
Chain of Bcl-xL (Q07817 1-212): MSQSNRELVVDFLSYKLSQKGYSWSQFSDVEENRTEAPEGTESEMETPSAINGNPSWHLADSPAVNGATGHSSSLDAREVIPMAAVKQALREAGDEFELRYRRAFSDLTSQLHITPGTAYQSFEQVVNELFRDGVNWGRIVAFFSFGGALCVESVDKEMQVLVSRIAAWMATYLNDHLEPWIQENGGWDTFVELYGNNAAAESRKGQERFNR

Row | Kd (Bcl-2) [nM] | Kd (Mcl-1) [nM] | Kd (Bcl-xL) [nM] | Binder
1 | < 100 | < 100 | – | Ac-IWIAQELRXIGDXFNAYYARR-NH2 (staple 9-13; not fully specified (residues 9, 13); printed as Ac-IWIAQELR$IGD$FNAYYARR-NH2) [SP-4 BIM Stapled]
2 | – | – | < 100 | Ac-IWIAQELRXIGDXFNAYYARR-NH2 (staple 9-13; not fully specified (residues 9, 13); printed as Ac-IWIAQELR$IGD$FNAYYARR-NH2) [SP-4 (BIM-BH3 peptidomimetic macrocycle, Ac-IWIAQELR$IGD$FNAYYARR-NH2)]
